The series “cryo-EM structure” deals with the molecule itself. In words: cryo-EM structure.
In series [1] the target is SV40 large tumour antigen (LTag) helicase hexamer (Simian virus 40, UniProt P03070 1-708). As to the kind of experiment: cryo-EM.

B1: simian virus 40 large tumour antigen (LTag) helicase (enzyme)
chain: MDKVLNREESLQLMDLLGLERSAWGNIPLMRKAYLKKCKEFHPDKGGDEEKMKKMNTLYKKMEDGVKYAHQPDFGGFWDATEIPTYGTDEWEQWWNAFNEENLFCSEEMPSSDDEATADSQHSTPPKKKRKVEDPKDFPSELLSFLSHAVFSNRTLACFAIYTTKEKAALLYKKIMEKYSVTFISRHNSYNHNILFFLTPHRHRVSAINNYAQKLCTFSFLICKGVNKEYLMYSALTRDPFSVIEESLPGGLKEHDFNPEEAEETKQVSWKLVTEYAMETKCDDVLLLLGMYLEFQYSFEMCLKCIKKEQPSHYKYHEKHYANAAIFADSKNQKTICQQAVDTVLAKKRVDSLQLTREQMLTNRFNDLLDRMDIMFGSTGSADIEEWMAGVAWLHCLLPKMDSVVYDFLKCMVYNIPKKRYWLFKGPIDSGKTTLAAALLELCGGKALNVNLPLDRLNFELGVAIDQFLVVFEDVKGTGGESRDLPSGQGINNLDNLRDYLDGSVKVNLEKKHLNKRTQIFPPGIVTMNEYSVPKTLQARFVKQIDFRPKDYLKHCLERSEFLLEKRIIQSGIALLLMLIWYRPVAEFAQSIQSRIVEWKERLDKEFSLSVYQKMKFNVAMGIGVLDWLRNSDDDDEDSQENADKNEDGGEKNMEDSGHETGIDSQSQGSFQAPQSSQSVHDHNQPYHICRGFTCFKKPPTPPPEPET
As usually defined, the stoichiometry N is the number of molecules, sites or subunits per partner or assembly. B1: the “stoichiometry N” value in the series “cryo-EM structure” amounted to 6.

B2: gap DNA substrate without free 3' ssDNA tail (mixed)
DNA 1: AGCTATGACCATGATTACGAATTGC
DNA 2: TTTTTCGGAGTCGTTTCGACTCCGATTTTTTTTTTTTTTTTTTTTTTTTTTTTTTTTTTTTTTTTTTTTTGCAATTCGTAATCATGGTCATAGCT
modifications: 3' terminal dideoxy-C ([23ddC]) on strand 1
Take B2: the binding result in series [1] is “no binding”.

The record behind these values is PMC12043514 (Nature, 2024).
